Numbering of substitutions follows the chain as printed. Read-outs that look alike come from different tables or passages of the source.
B1: Antibody 3 (antibody, V domains shown)
VH: QVQLQESGPGLVKPSQTLSLTCAISGDSVSSNNAVWNWIRQSPSRGLEWLGRTYYRSKWYNDYAESVKSRITVNPDTSKNQFSLHLKSVTPEDTAVFYCVRSGHITVFGVNVDAFDMWGQGTMVTVSS
VL: DIQMTQSPSSLSASVGDRVTITCRTSQSLSSYLHWYQQKPGKAPKLLIYAASSLQSGVPSRFSGSGSGTDFTLTISSLQPEDFATYYCQQSRTFGQGTKVEIK
B2: Antibody 11 (antibody, V domains shown)
VH: B1 VH with E6Q, N32Y, K58G, V73I, H85Q, K87N, F97Y, V100A
VL: B1 VL with L33T, L54R, Q55L
B3: Antibody 12 (antibody, V domains shown)
VH: B1 VH with E6Q, N32Y, K58G, V73I, H85Q, K87N, F97Y, V100A
VL: B1 VL with L33T, L54R, Q55G
B4: Antibody 13 (antibody, V domains shown)
VH: B1 VH with E6Q, N32Y, K58G, V73I, H85Q, K87N, F97Y, V100A
VL: B1 VL with L33D, L54R, Q55L
B5: Antibody 14 (antibody, V domains shown)
VH: B1 VH with E6Q, V73I, H85Q, K87N, F97Y, V100A, M123T
VL: B1 VL with L33T, L54R, Q55L
B6: Antibody 15 (antibody, V domains shown)
VH: B1 VH with E6Q, V73I, H85Q, K87N, F97Y, V100A, M123T
VL: B1 VL with L33T, L54R, Q55G
B7: Antibody 5 (antibody, V domains shown)
VH: QVQLQQSGPGLVKPSQTLSLTCAISGDRVSSNSAVWNWIRQSPSRGLEWLGRTYYRSKWYYDYAESVKSRIVIDPDTSKNQVSLQLNSVTPEDSAIYYCARGGHITVFGLNIDAYDIWGQGAMVTVSS
VL: DIQMTQSPSSLSASVGDRVTISCRAQSLSSYLHWYQQKPGQPPKLLIYAATTLQSGVPSRFSGSGSGTDFTLTISTFQAEDVATYYCQQSRTFGQGTKVEIK
B8: Antibody 6 (antibody, V domains shown)
VH: B7 VH with V107E
VL: B7 VL
B9: Antibody 8 (antibody, V domains shown)
VH: QVQLQQSGPGLVKPSQTLSLTCVISGDTVSSNRATWNWMRQSPLRGLEWLGRTYYRSKWYNDYAVSVKSRVVINPDTSKNQVSLQLNTVTPDDSGVYFCARGGHITVFGVNIDAFDIWGLGTKVTVSS
VL: DIQMTQSPSSLSASVGDRVTISCRASQRLNSYLHWYQQTPGQAPKLLIYATSTLQSGVSPRFSGSGSGTDFTLTISSLQPEDVATYYCQLSRTFGHGTKVEIK
B10: Antibody 10 (antibody, V domains shown)
VH: QVQLQQSGPGLVKPSQTLSLTCAISGDSVSSNSATWNWIRQSPSRGLEWLGRTYYRSKWYNDYADFLKRRITINPDTSNNEVSLRLTSVTPDDTALYYCARGGHITVFGVNIDAFDVWGQGTMVTVSS
VL: B1 VL with V19I, T22S, S30R, A51S, S53T, S77N, Q90L

Experiments:
Assay in all cases: cell-based or functional assay
[1] = molecular target: HA of ca A/Wuhan/359/95 (H3N2) (influenza A virus)
[2] = molecular target: T1, HA of A/Puerto Rico/8/34 (H1N1) (influenza A virus, UniProt P03452 18-565)
[3] = molecular target: HA of ca A/Wuhan/359/95 (H3N2) (influenza A virus); remark: listed apart in the source
[4] = molecular target: T1, HA of A/Puerto Rico/8/34 (H1N1); remark: listed apart in the source
[5] = molecular target: rHK68_K156Q H3 HA (influenza A virus)
[6] = molecular target: rHK68_D19Y H3 HA (influenza A virus)
[7] = molecular target: rHK68_Q42R H3 HA (influenza A virus)
[8] = molecular target: rHK68_A196T H3 HA (influenza A virus)
[9] = molecular target: rHK68_D19N H3 HA (influenza A virus)
[10] = molecular target: rHK68_I45N H3 HA (influenza A virus)
[11] = molecular target: rHK68_I18R H3 HA (influenza A virus)
[12] = molecular target: rHK68_I45T H3 HA (influenza A virus)

T1 sequence (P03452 18-565 limits assumed): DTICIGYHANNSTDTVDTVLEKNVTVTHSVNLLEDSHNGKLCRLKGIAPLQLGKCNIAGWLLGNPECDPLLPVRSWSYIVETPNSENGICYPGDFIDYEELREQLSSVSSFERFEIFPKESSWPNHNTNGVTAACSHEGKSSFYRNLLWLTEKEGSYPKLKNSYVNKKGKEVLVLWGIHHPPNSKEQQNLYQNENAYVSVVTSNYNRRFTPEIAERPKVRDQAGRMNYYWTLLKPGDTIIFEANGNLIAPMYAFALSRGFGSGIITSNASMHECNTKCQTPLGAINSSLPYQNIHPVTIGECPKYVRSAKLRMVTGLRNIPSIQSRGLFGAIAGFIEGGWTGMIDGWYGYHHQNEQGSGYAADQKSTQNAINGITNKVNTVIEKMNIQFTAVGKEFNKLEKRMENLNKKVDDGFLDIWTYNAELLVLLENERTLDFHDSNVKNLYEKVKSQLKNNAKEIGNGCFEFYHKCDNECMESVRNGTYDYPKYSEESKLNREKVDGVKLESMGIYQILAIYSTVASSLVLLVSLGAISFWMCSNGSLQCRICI

| Binder | Neutralization IC50, H3-WH95 [1] [µg/mL] | Neutralization IC50, H1-PR34 [2] [µg/mL] | Neutralization IC50, H3-WH95 [3] [µg/mL] | Neutralization IC50, H3-WH95-OR [3] [µg/mL] | Neutralization IC50, H1-PR34 [4] [µg/mL] | Neutralization IC50, H1-PR34-OR [4] [µg/mL] | other results |
| --- | --- | --- | --- | --- | --- | --- | --- |
| B1 | 3.96 | 1.07 | 5.63 | 7.7 | 2.17 | 1.39 |  |
| B2 |  |  | 2.45 | 2.26 | 0.88 | 0.73 |  |
| B3 |  |  | 2.09 | 2.34 | 1.07 | 0.69 | Avg. Neut., microneutralization [5]: 3.33 µg/mL; Avg. Neut., microneutralization [6]: > 200 µg/mL; Avg. Neut., microneutralization [7]: 11.1 µg/mL; Avg. Neut., microneutralization [8]: 4.06 µg/mL; Avg. Neut., microneutralization [9]: 3.04 µg/mL; Avg. Neut., microneutralization [10]: 1.94 µg/mL; Avg. Neut., microneutralization [11]: > 200 µg/mL; Avg. Neut., microneutralization [12]: 3.38 µg/mL |
| B4 |  |  | 2.77 | 3.01 | 1.3 | 0.88 |  |
| B5 |  |  | 2.77 | 3.09 | 1.25 | 0.83 |  |
| B6 |  |  | 3.32 | 3.48 | 1.47 | 0.9 |  |
| B7 | 3.72 | 1.13 |  |  |  |  |  |
| B8 | 10.5 | 4.37 |  |  |  |  |  |
| B9 | > 50 | 3.02 |  |  |  |  |  |
| B10 | 8.7 | 2.15 |  |  |  |  |  |

Reference: patent publication US20160257732A1 (published 2016)
